Experimental data from paper PMC11208740, “Structure of the human systemic RNAi defective transmembrane protein 1 (hSIDT1) reveals the conformational flexibility of its lipid binding domain” (Life Science Alliance, 2024).

Molecular target: the molecule itself
Test: SEC; purified hSIDT1-GFP on Superose 6 Increase 10/300 GL at 0.5 ml/min, intrinsic tryptophan fluorescence; column in 0.15 mM LMNG, 25 mM Tris-HCl pH 7.5, 200 mM NaCl; molecular weight read from a standard plot

B1: full-length human systemic RNAi defective transmembrane family member 1 (hSIDT1), C-terminal GFP-Strep-tag-II fusion (natural protein, UniProt Q9NXL6 20-827, looked up)
chain: ASPGHPAKSPRQPPAPRRDPFDAARGADFDHVYSGVVNLSTENIYSFNYTSQPDQVTAVRVYVNSSSENLNYPVLVVVRQQKEVLSWQVPLLFQGLYQRSYNYQEVSRTLCPSEATNETGPLQQLIFVDVASMAPLGAQYKLLVTKLKHFQLRTNVAFHFTASPSQPQYFLYKFPKDVDSVIIKVVSEMAYPCSVVSVQNIMCPVYDLDHNVEFNGVYQSMTKKAAITLQKKDFPGEQFFVVFVIKPEDYACGGSFFIQEKENQTWNLQRKKNLEVTIVPSIKESVYVKSSLFSVFIFLSFYLGCLLVGFVHYLRFQRKSIDGSFGSNDGSGNMVASHPIAASTPEGSNYGTIDESSSSPGRQMSSSDGGPPGQSDTDSSVEESDFDTMPDIESDKNIIRTKMFLYLSDLSRKDRRIVSKKYKIYFWNIITIAVFYALPVIQLVITYQTVVNVTGNQDICYYNFLCAHPLGVLSAFNNILSNLGHVLLGFLFLLIVLRRDILHRRALEAKDIFAVEYGIPKHFGLFYAMGIALMMEGVLSACYHVCPNYSNFQFDTSFMYMIAGLCMLKLYQTRHPDINASAYSAYASFAVVIMVTVLGVVFGKNDVWFWVIFSAIHVLASLALSTQIYYMGRFKIDLGIFRRAAMVFYTDCIQQCSRPLYMDRMVLLVVGNLVNWSFALFGLIYRPRDFASYMLGIFICNLLLYLAFYIIMKLRSSEKVLPVPLFCIVATAVMWAAALYFFFQNLSSWEGTPAESREKNRECILLDFFDDHDIWHFLSATALFFSFLVLLTLDDDLDVVRRDQIPVF
notes: human systemic RNAi defective transmembrane family member 1 (hSIDT1), full length, codon-optimized gene synthesized by GenScript, cloned into pEG BacMam; Made in cells that lack N-acetylglucosaminyltransferase I, so the protein lacks complex N-glycosylation (predicted sites N57, N67, N83, N136, N282); No cleavage of GFP-Strep-tag-II is described; Not modelled in the structure: the first 40 …
  stoichiometry N: 2
